Experimental data from patent US20090285843A1, “EPITOPE SEQUENCES” (Mannkind Corporation, priority 2002, published 2009).

Legend:
[1] = target: HLA-A2.1 (Homo sapiens, UniProt P04439, D140Y/D185E/D98H/E176V/E277Q/G131W/G231S/I119V/I121R/I166T/I218V/L300P/L318F/N151K/N90K/P208A/P217A/Q86G/Q94H/R138H/R169H/T345S); assay: HLA-A0201 binding assay (T2 cells, flow cytometry); settings: for binding to HLA-A2.1: T2 cells, flow cytometry, compared with control peptides
[2] = test system: tumor cells expressing other SSX proteins; assay: Cross-reactivity of CTL with other SSX proteins; assay type: cell-based
Source text: The surrounding regions have also been generally well conserved. Thus the housekeeping proteasome can cleave following V49 in all five sequences.

[3] = test system: peptide pulsed T2 cells; assay: In vivo immunization of mice, in vitro stimulation, chromium-release assay measuring CTL activity; design: species or system HHD1 transgenic A*0201 mice; settings: 100 nmol peptide s.c. with HTL epitope peptide in IFA; 51Cr-release
Experimental: Using spleens from 2 naive mice for each group of immunized mice, un-immunized mice were sacrificed and the carcasses were placed in alcohol. Using sterile instruments, the top dermal layer of skin on the mouse's left side (lower mid-section) was cut through, exposing the peritoneum. The peritoneum was saturated with alcohol, and the spleen was aseptically extracted. The spleen was placed in a petri dish with serum-free media. Splenocytes were isolated by using sterile plungers from 3 ml syringes to mash the spleens. Cells were collected in a 50 ml conical tubes in serum-free media, rinsing dish well. Cells were centrifuged ([…], 7 min) and washed one time with RPMI. Fresh spleen cells were resuspended to a concentration of 1×10^6 cells per ml in RPMI-10% FCS (fetal calf serum). 25 µg/ml lipopolysaccharide and 7 μg/ml Dextran Sulfate were added. Cell were incubated for 3 days in T-75 flasks at 37° C., with 5% CO2. Splenic blasts were collected in 50 ml tubes pelleted ([…], 7 min) and resuspended to 3×10^7/ml in RPMI. The blasts were pulsed with the priming peptide at 50 μg/ml, RT 4 hr. mitomycin C-treated at 25 μg/ml, 37° C., 20 min and washed three times with DMEM. […]
During incubation they were gently shaken every 15 minutes. […] Supernatants were harvested and counted using a gamma counter.

[4] = test system: 624.38; assay: In vitro induced CTL, chromium release assay on tumor cell line; assay type: cell-based, human; settings: 624.38, HLA-A2+, tyrosinase+
Experimental: (§1) , tyrosinase207-215 (SEQ ID NO. 8) was used in an in vitro immunization of HLA-A2^+ blood to generate CTL (see CTL Induction Cultures below).
(§2) PBMCs from normal donors were purified by centrifugation in Ficoll-Hypaque from buffy coats. All cultures were carried out using the autologous plasma (AP) to avoid exposure to potential xenogeneic pathogens and recognition of FBS peptides. To favor the in vitro generation of peptide-specific CTL, we employed autologous dendritic cells (DC) as APCs. DC were generated and CTL were induced with DC and peptide from PBMCs as described (Keogh et al., 2001). Briefly, monocyte-enriched cell fractions were cultured for 5 days with GM-CSF and IL-4 and were cultured for 2 additional days in culture media with 2 μg/ml CD40 ligand to induce maturation. 2×10^6 CD8+-enriched T lymphocytes/well and 2×10^5 peptide-pulsed DC/well were co-cultured in 24-well plates in 2 ml RPMI supplemented with 10% AP, 10 ng/ml IL-7 and 20 IU/ml IL-2. Cultures were restimulated on days 7 and 14 with autologous irradiated peptide-pulsed DC.

[5] = test system: HTB64; assay: as above; assay type: cell-based, human; settings: HTB64, HLA-A2+, tyrosinase+
Experimental: as §1, §2

[6] = test system: peptide pulsed T2 cells; assay: In vitro immunization of HLA-A2+ blood (CTL induction cultures), chromium release assay; assay type: cell-based, human
Experimental: as §1, §2

[7] = test system: metastatic melanoma; settings: first 15 patients; intradermal peptide with IL-12; cited from earlier work
[8] = target: T1, proteasome isolated from human red blood cells (Homo sapiens, UniProt P28072+P28074+Q99436); assay: N-terminal pool sequence analysis of proteasomal digest; assay type: biochemical; settings: in vitro proteasome digestion and N-terminal pool sequencing
T1 construct: from tissue; host or cells: human red blood cells
Source text: One aliquot at one hour of the proteasomal digestion (see Example 3 part 3 above) was subjected to N-terminal amino acid sequence analysis by an ABI 473A Protein Sequencer (Applied Biosystems, Foster City, Calif.). Determination of the sites and efficiencies of cleavage was based on consideration of the sequence cycle, the repetitive yield of the protein sequencer, and the relative yields of amino acids unique in the analyzed sequence. That is if the unique (in the analyzed sequence) residue X appears only in the nth cycle a cleavage site exists n−1 residues before it in the N-terminal direction.

[9] = test system: HLA-A1+ CD8+ T cells; assay: gamma-IFN-based ELISPOT assay; assay type: cell-based, human; settings: blocking of gamma IFN production by anti-HLA-A1 monoclonal antibody
Experimental: The wells of a nitrocellulose-backed microtiter plate were coated with capture antibody by incubating overnight at 4° C. using 50 μl (microliter)/well of 4 μg/ml murine anti-human γ (gamma)-IFN monoclonal antibody in coating buffer (35 mM sodium bicarbonate, 15 mM sodium carbonate, pH 9.5). Unbound antibody was removed by washing 4 times 5 min. with PBS. Unbound sites on the membrane then were blocked by adding 200 μl (microliter)/well of RPMI medium with 10% serum and incubating 1 hr. at room temperature. Antigen stimulated CD8^+ T cells, in 1:3 serial dilutions, were seeded into the wells of the microtiter plate using 100 μl (microliter)/well, starting at 2×10^5 cells/well. (Prior antigen stimulation was essentially as described in Scheibenbogen, C. et al. Int. J. […] PSMA462-471 (SEQ ID NO. 62) was added to a final concentration of 10 μg/ml and IL-2 to 100 U/ml and the cells cultured at 37° C. in a 5% CO2, water-saturated atmosphere for 40 hrs. Following this incubation the plates were washed with 6 times 200 μl (microliter)/well of PBS containing 0.05% Tween-20 (PBS-Tween). […] The plate was air dried and the spots counted using a stereomicroscope. […] No reactivity is detected from cultures without peptide (data not shown).

GLPSIPVHPI (listed as Homo sapiens) [PSMA288-297]
binding to HLA-A2.1 [1]: significant binding at even lower concentrations than the positive control peptides

GMPEGDLVYV (listed as Homo sapiens) [PSMA168-177]
binding to HLA-A2.1 [1]: significant binding at even lower concentrations than the positive control peptides

KASEKIFYV [SSX-241-49]
binding to HLA-A2.1 [1]: bind HLA-A2.1 to a similar extent as the known A2.1 binder FLPSDYFPSV | cross-reactivity of CTL generated by immunization [2]: cross-react with tumor cells expressing other SSX proteins | specific lysis of peptide pulsed targets by CTL from immunized mice [3]: specific lysis

YTLRVDCTPL (listed as Homo sapiens) [PSMA460-469]
binding to HLA-A2.1 [1]: bind HLA-A2.1 to a similar extent as the known A2.1 binder FLPSDYFPSV

TLRVDCTPL (listed as Homo sapiens) [PSMA461-469]
binding to HLA-A2.1 [1]: binds nearly as well

RMMNDQLMFL (listed as Homo sapiens) [PSMA662-671]
binding to HLA-A2.1 [1]: significant binding at even lower concentrations than the positive control peptide | binding activity compared between the two PSMA peptides ([1]; not run in parallel, comparison to the controls): superior binding activity

FLPWHRLFL (listed as Homo sapiens) [tyrosinase207-215]
binding to HLA-A2.1 [1]: more significant binding | recognition of tumor cell line by CTL induced by the peptide [4]: recognize | recognition of tumor cell line by CTL induced by the peptide [5]: recognize | immunogenicity ([6]; compared with the other tyrosinase length variant): superior immunogenicity | recognition of tyrosinase207-216 targets by CTL induced by the peptide ([6]; peptide pulsed T2 cells, standard chromium release assay): equally well

MART-126-35 peptide: MART-1 26-35 peptide given intradermally with IL-12 to metastatic melanoma patients (Cebon et al.)
clinical response [7]: 1 complete remission, 1 partial remission, and 1 mixed response

FLPWHRLFLL (listed as Homo sapiens) [Tyrosinase207-216]
relative production by in vitro proteasome digestion [8]: produced more commonly

MMNDQLMFL [PSMA663-671]
binding to HLA-A2.1 [1]: significant binding at even lower concentrations than the positive control peptide

RVDCTPLMY [PSMA463-471]
HLA restriction of response [9]: HLA-A1-restricted response
